These are literature values, as cited in PMC5245780.

pKd: −log10 of the molar value.

In this data set the target is Hax1 isoform 1 (Rattus norvegicus) (UniProt Q7TSE9).

As usually defined, the pKd is the Kd on a negative log10 scale, so that one unit is a factor of ten. With Hax1 isoform 1 (from UniProt Q7TSE9), the negative-log Kd (pKd) was 8.42.
